Experimental findings from paper PMC10786891, “Massively parallel profiling of RNA-targeting CRISPR-Cas13d” are described below.

Residue numbers refer to the chain shown, from its start. Names and notes keep the numbering of the source.

The chains are these.
B1: target 1 A1G,G13A (mixed)
RNA 1: CACCCGUGCAAAAAUGCAGGGGUCUAAAACUGAGCGGAUAACCUCUCUAUGG
RNA 2: GGGAAUGGAUCCACAUCUACGAAUUCGUACCAUAGAGAAGUUAUCCGCUCGCCGAGAUCGGAAGAGCACACGU
B2: target 1 G13A (mixed)
RNA 1: B1 RNA 1
RNA 2: B1 RNA 2 with G51A
B3: target 1 A1C,G13A (mixed)
RNA 1: B1 RNA 1
RNA 2: B1 RNA 2 with G51C
B4: target 1 A18U,C22A (mixed)
RNA 1: B1 RNA 1
RNA 2: B1 RNA 2 with C30A, A34U, A39G, G51A
B5: target 2 MT 5'PFS GUA 3'PFS AAC (mixed)
RNA 1: CACCCGUGCAAAAUUGCAGGGGUCUAAAACCUUCUCCAAAUUGUUUCAUCCU
RNA 2: GGGAAUGGAUCCACAUCUACGAAUUCGUAAGGAUGAAACAAUUUGGAGAAGAACAGAUCGGAAGAGCACACGU
B6: target 2 MT 5'PFS GAU 3'PFS CAC (mixed)
RNA 1: B5 RNA 1
RNA 2: B5 RNA 2 with U28A, A29U, A52C
B7: target 2 MT 5'PFS UGA 3'PFS UCG (mixed)
RNA 1: B5 RNA 1
RNA 2: B5 RNA 2 with G27U, U28G, A52U, A53C, C54G
B8: target 2 MT 5'PFS CAG 3'PFS CUG (mixed)
RNA 1: B5 RNA 1
RNA 2: B5 RNA 2 with G27C, U28A, A29G, A52C, A53U, C54G
B9: target 2 MT 5'PFS GAU 3'PFS CAG (mixed)
RNA 1: B5 RNA 1
RNA 2: B5 RNA 2 with U28A, A29U, A52C, C54G
B10: target 2 MT 5'PFS CGC 3'PFS CAC (mixed)
RNA 1: B5 RNA 1
RNA 2: B5 RNA 2 with G27C, U28G, A29C, A52C
B11: target 2 MT 5'PFS CCC 3'PFS CCU (mixed)
RNA 1: B5 RNA 1
RNA 2: B5 RNA 2 with G27C, U28C, A29C, A52C, A53C, C54U
B12: target 2 MT 5'PFS CGC 3'PFS CAA (mixed)
RNA 1: B5 RNA 1
RNA 2: B5 RNA 2 with G27C, U28G, A29C, A52C, C54A
B13: target 2 MT 5'PFS AAC 3'PFS AUU (mixed)
RNA 1: B5 RNA 1
RNA 2: B5 RNA 2 with G27A, U28A, A29C, A53U, C54U
B14: target 2 MT 5'PFS AAC 3'PFS AUA (mixed)
RNA 1: B5 RNA 1
RNA 2: B5 RNA 2 with G27A, U28A, A29C, A53U, C54A
B15: target 2 MT 5'PFS GAU 3'PFS CAA (mixed)
RNA 1: B5 RNA 1
RNA 2: B5 RNA 2 with U28A, A29U, A52C, C54A
B16: target 2 MT 5'PFS AAC 3'PFS UUG (mixed)
RNA 1: B5 RNA 1
RNA 2: B5 RNA 2 with G27A, U28A, A29C, A52U, A53U, C54G
B17: target 2 MT 5'PFS GCC 3'PFS AGA (mixed)
RNA 1: B5 RNA 1
RNA 2: B5 RNA 2 with U28C, A29C, A53G, C54A
B18: target 2 MT 5'PFS UGA 3'PFS UCA (mixed)
RNA 1: B5 RNA 1
RNA 2: B5 RNA 2 with G27U, U28G, A52U, A53C, C54A
B19: target 2 MT 5'PFS GGU 3'PFS AUC (mixed)
RNA 1: B5 RNA 1
RNA 2: B5 RNA 2 with U28G, A29U, A53U
B20: target 2 MT 5'PFS GGU 3'PFS UCU (mixed)
RNA 1: B5 RNA 1
RNA 2: B5 RNA 2 with U28G, A29U, A52U, A53C, C54U
B21: target 2 MT 5'PFS CAG 3'PFS CUC (mixed)
RNA 1: B5 RNA 1
RNA 2: B5 RNA 2 with G27C, U28A, A29G, A52C, A53U
B22: target 2 MT 5'PFS GGU 3'PFS UCG (mixed)
RNA 1: B5 RNA 1
RNA 2: B5 RNA 2 with U28G, A29U, A52U, A53C, C54G
B23: target 2 MT 5'PFS UCG 3'PFS AGG (mixed)
RNA 1: B5 RNA 1
RNA 2: B5 RNA 2 with G27U, U28C, A29G, A53G, C54G
B24: target 2 MT 5'PFS GCC 3'PFS AGC (mixed)
RNA 1: B5 RNA 1
RNA 2: B5 RNA 2 with U28C, A29C, A53G
B25: target 2 MT 5'PFS CGC 3'PFS CAG (mixed)
RNA 1: B5 RNA 1
RNA 2: B5 RNA 2 with G27C, U28G, A29C, A52C, C54G
B26: target 2 MT 5'PFS AAC 3'PFS AUC (mixed)
RNA 1: B5 RNA 1
RNA 2: B5 RNA 2 with G27A, U28A, A29C, A53U
B27: target 2 MT 5'PFS UGA 3'PFS UCC (mixed)
RNA 1: B5 RNA 1
RNA 2: B5 RNA 2 with G27U, U28G, A52U, A53C
B28: target 2 MT 5'PFS CGC 3'PFS CAU (mixed)
RNA 1: B5 RNA 1
RNA 2: B5 RNA 2 with G27C, U28G, A29C, A52C, C54U
B29: target 2 MT 5'PFS GGU 3'PFS UCC (mixed)
RNA 1: B5 RNA 1
RNA 2: B5 RNA 2 with U28G, A29U, A52U, A53C
B30: target 2 MT 5'PFS GAU 3'PFS CAU (mixed)
RNA 1: B5 RNA 1
RNA 2: B5 RNA 2 with U28A, A29U, A52C, C54U
B31: target 2 MT 5'PFS UCG 3'PFS AGA (mixed)
RNA 1: B5 RNA 1
RNA 2: B5 RNA 2 with G27U, U28C, A29G, A53G, C54A

For this data set, the target named is T1, EsCas13d, nuclease-dead (Eubacterium siraeum, UniProt B0MS50, R295A;H300A;R849A;H854A).
T1 sequence: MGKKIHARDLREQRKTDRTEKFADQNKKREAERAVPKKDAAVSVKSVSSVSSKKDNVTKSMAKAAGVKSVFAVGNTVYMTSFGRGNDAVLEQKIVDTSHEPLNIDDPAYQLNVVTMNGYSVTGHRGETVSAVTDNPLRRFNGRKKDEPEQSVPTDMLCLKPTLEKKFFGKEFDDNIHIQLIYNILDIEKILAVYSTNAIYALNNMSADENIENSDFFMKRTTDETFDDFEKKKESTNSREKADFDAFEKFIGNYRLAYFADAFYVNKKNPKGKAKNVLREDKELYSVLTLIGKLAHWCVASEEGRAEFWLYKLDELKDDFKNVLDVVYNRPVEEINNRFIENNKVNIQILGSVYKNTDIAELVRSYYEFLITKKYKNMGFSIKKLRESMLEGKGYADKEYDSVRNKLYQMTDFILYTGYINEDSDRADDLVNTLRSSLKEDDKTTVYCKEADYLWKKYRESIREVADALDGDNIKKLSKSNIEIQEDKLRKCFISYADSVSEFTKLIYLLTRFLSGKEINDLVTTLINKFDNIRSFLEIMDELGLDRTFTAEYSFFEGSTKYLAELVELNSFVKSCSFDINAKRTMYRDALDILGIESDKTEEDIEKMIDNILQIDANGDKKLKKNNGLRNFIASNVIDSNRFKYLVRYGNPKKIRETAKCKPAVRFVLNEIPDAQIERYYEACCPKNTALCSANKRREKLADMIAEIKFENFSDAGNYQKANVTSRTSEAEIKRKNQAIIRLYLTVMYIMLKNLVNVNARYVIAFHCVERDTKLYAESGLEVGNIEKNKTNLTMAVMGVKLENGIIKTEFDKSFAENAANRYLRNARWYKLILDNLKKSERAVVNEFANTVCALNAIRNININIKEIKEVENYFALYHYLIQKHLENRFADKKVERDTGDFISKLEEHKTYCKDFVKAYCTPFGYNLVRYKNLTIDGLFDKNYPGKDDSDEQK
Description: crRNA (strand 1, pre-loaded); Mg2+; 40 mM Tris-HCl pH 7.5, 150 mM NaCl, 6 mM MgCl2, 1 mM DTT, 0.1% Tween-20, 0.2 mg/ml BSA; 25 C; 10 min per concentration, then washed. The settings on record: tags: His6-TwinStrep-SUMO cleaved; N-terminal SNAP kept (SNAP-Surface 488); label: 3' end held by stalled T7 RNA polymerase.
B1: binding was characterised by a dissociation constant (Kd) of 6.2 ± 0.8 nM.

For B2, binding was put at a Kd of 4.9 ± 0.4 nM. The figure for B3 is 14.8 ± 2.5 nM; for B4 it is 58 ± 6 nM. With B5, the Kd (in general, the concentration at which binding is half-saturated) stood at 6.2 ± 0.5 nM. Molecule B6 had a Kd of 11.3 ± 2.4 nM.

B7: the Kd came to 13 ± 1.7 nM. B8 registered a Kd of 7.2 ± 1.3 nM. As for B9, the figure is 8.7 ± 0.6 nM; as for B10, 5.1 ± 0.5 nM; as for B11, 7.6 ± 1.8 nM. For B12, the Kd amounted to 7.4 ± 2.5 nM. As for B13, the figure is 6.1 ± 1.8 nM; as for B14, 6.1 ± 1.4 nM; as for B15, 14 ± 5 nM.

In the case of B16, binding was put at a Kd of 8.5 ± 1.3 nM. The figure for B17 is 10.5 ± 1.8 nM. As for B18, the figure is 14 ± 6 nM; as for B19, 20 ± 3 nM; as for B20, 38 ± 7 nM. For B21, the Kd worked out at 6.5 ± 1.3 nM.

The molecule B22 showed a Kd of 29 ± 4 nM. The figure for B23 is 35 ± 9 nM.

As to B24, the Kd turned out to be 10.5 ± 1.2 nM. As for B25, the figure is 3.6 ± 0.6 nM. The figure for B26 is 3.8 ± 0.9 nM; for B27 it is ~49 nM; for B28 it is 4.5 ± 0.7 nM. As for B29, the figure is 76 ± 19 nM; as for B30, 9 ± 1.4 nM. B31 had a Kd of 17.9 ± 2.3 nM.
